This note sets out measurements from the DeepSol protein solubility set.

This data set is described as follows: soluble on expression in E. coli; label from the status in PepcDB or PDB records.
“SLRDSFHFKTYRKRRICPTMTLVLDLDETLIYCTKKRKYHYQKEVDVLINGKYLPLYVCKRPYIDLFFSSLYPFYEIIIFTTAIKSYADTVLNIIDVDHYIDKKFYREDCYEMNEKLYIKNLTNIKKELSKIILIDDSNISGFQYPDNFFPIKKWQGDLNDNELLHLIPFFLNLRKLKDIRSLCSFRLISQKDVSKLLCTSS”: the “soluble on expression in E. coli” value is recorded as “not soluble”.
As for “SLRIREIEPIVLTSKEKGSATWASIMIVTRVITENGEVGYGEAVPTLRVISVYNAIKQVSKAYIGKEVEEVEKNYHEWYKQDFYLARSFESATAVSAIDIASWDIIGKELGAPIHKLLGGKTRDRVPVYANGWYQDCVTPEEFAEKAKDVVKMGYKALKFDPFGPYYDWIDERGLREAEERVKAVREAVGDNVDILIEHHGRFNANSAIMIAKRLEKYNPGFMEEPVHHEDVIGLRKYKASTHLRVALGERLISEKETAFYVEEGLVNILQPDLTNIGGVTVGRSVIKIAEANDVEVAFHNAFGSIQNAVEIQLSAVTQNLYLLENFYDWFPQWKRDLVYNETPVEGGHVKVPYKPGLGVSINEKIIEQLRAEPIPLDVIEEPVWVVKGTWKNYGV”, the entry is “not soluble”; as for “SLRLPTVFRQMRPVSRVLAPHLTRAYAKDVKFGADARALMLQGVDLLADAVAVTMGPKGRTVIIEQSWGSPKVTKDGVTVAKSIDLKDKYKNIGAKLVQDVANNTNEEAGDGTTTATVLARSIAKEGFEKISKGANPVEIRRGVMLAVDAVIAELKKQSKPVTTPEEIAQVATISANGDKEIGNIISDAMKKVGRKGVITVKDGKTLNDELEIIEGMKFDRGYISPYFINTSKGQKCEFQDAYVLLSEKKISSIQSIVPALEIANAHRKPLVIIAEDVDGEALSTLVLNRLKVGLQVVAVKAPGFGDNRKNQLKDMAIATGGAVFGEEGLTLNLEDVQPHDLGKVGEVIVTKDDAMLLKGKGDKAQIEKRIQEIIEQLDVTTSEYEKEKLNERLAKLSDGVAVLKVGGTSDVEVNEKKDRVTDALNATRAAVEEGIVLGGGCALLRCIPALDSLTPANEDQKIGIEIIKRTLKIPAMTIAKNAGVEGSLIVEKIMQSSSEVGYDAMAGDFVNMVEKGIIDPTKVVRTALLDAAGVASLLTTAEVVVTEIPKEEKDPGMGAMGGMGGGMGGGMF”, “soluble”; as for “SLSAAEADLAGKSWAPVFANKNANGDAFLVALFEKFPDSANFFADFKGKSVADIKASPKLRDHSSTIFTRLNEFVNNAANAGKMSAMLSQFAKEHVGFGVGSAQFENVRSMFPGFVASVAAPPAGADAAWTKLFGLIIDALKAAGK”, “soluble”.
Under “SLSESFPLLEKYRIGKVIGDGNFAVVKECVDRYTGKEFALKIIDKAKCCGKEHLIENEVSILRRVKHPNIIMLVEEMETATDLFLVMELVKGGDLFDAITSSTKYTERDGSAMVYNLANALRYLHSLSIVHRDIKPENLLVCEYPDGTKSLKLGDFGLATVVEGPLYTVCGTPTYVAPEIIAETGYGLKVDVWAAGVITYILLCGFPPFRSENNLQEDLFDQILAGKLEFPAPYWDNITDSAKELISQMLQVNVEARCTAGEILSHPWVSDDASQENNMQAEVTGKLKQHFNNALPKQNSTTTGVSVIMNTALDK” stands “soluble”; under “SLSFASETKKELTNLEVKDCCINAELSALIRMNGALSFTNRHLVLDVQTENAAIARRIYTLLKKQYDVSVELLVRKKMRLKKNNVYIVRFSENAKAILEDLKILGENFVFERSISKELVKKRCCKRSYMRGAFLAGGSVNNPETSSYHLEIFSLYKEHNDSLCDLLNEFQLNSKTLERKKGYITYLKEAEKITEFLNVIGAHNSLLRFEDVRIVRDMRNSVNRLVNCETANLNKTIGASLRQVENIKYIDERIGLEALPEKLREIAQLRIDYQEVTLKELGEMVASGKISKSGINHRLRKLDEIAEQLRTGQTVTLK”, “soluble”; under “SLTQSLLMYMDGPEVIGSSLGSPMEMEDALSMKGTAVVPFRATQEKNVIQIEGYMPLDCMFCSQTFTHSEDLNKHVLMQHRPTLCEPAVLRVEAEYLSPLDKSQVRTEPPKEKNCKENEFSCEVCGQTFRVAFDVEIHMRTHKDSFTYGCNMCGRRFKEPWFLKNHMRTHNGKSGARSKLQQGLESSPATINEVVQVHAAESISSPYKICMVCGFLFPNKESLIEHRKVHTKKTAFGTSSAQTDSPQGGMPSSREDFLQLFNLRPKSHPETGKKPVRCIPQLDPFTTFQAWQLATKGKVAICQEVKESGQEGSTDNDDSSSEKELGETNKGSCAGLSQEKEKCKHSHGEAPSVDADPKLPSSKEKPTHCSECGKAFRTYHQLVLHSRVHKKDRRAGAESPTMSVDGRQPGTCSPDLAAPLDENGAVDRGEGGSEDGSEDGLPEGIHLDKNDDGGKIKHLTSSRECSYCGKFFRSNYYLNIHLRTHTGEKPYKCEFCEYAAAQKTSLRYHLERHHKEKQTDVAAEVKNDGKNQDTEDALLTADSAQTKNLKRFFDGAKDVTGSPPAKQLKEMPSVFQNVLGSAVLSPAHKDTQDFHKNAADDSADKVNKNPTPAYLDLLKKRSAVETQANNLICRTKADVTPPPDGSTTHNLEVSPKEKQTETAADCRYRPSVDCHEKPLNLSVGALHNCPAISLSKSLIPSITCPFCTFKTFYPEVLMMHQRLEHKYNPDVHKNCRNKSLLRSRRTGCPPALLGKDVPPLSSFCKPKPKSAFPAQSKSLPSAKGKQSPPGPG”, “not soluble”.
As for “SLTRAVAALLPDGKRLHLQHGPIDLIIGAEGGPGAREAAFVTATARFETVLAELVGELPLLKTELAPDAPLPLGPVARRMDTACRPLMALRLTRMAAVAGAVADEVLAAMLSSTPLTRAYVNNGGDIALHLTGDTRFTLAMATPDGRDLGRISLGTGDRIGGIATSGLGGRSLSLGIAESVTVLAPSAAGADAAATLIANATDLPGHPAIRRAPANTVKDDSDLGQRPVVTHCGPLDRNEVLHALENGRKLAVEMIANGHIRSAHLSLRGQSCQAGAIPVIAPERRLALA”, the entry is “soluble”; as for “SLVAVIGCCHGELNRLYMEVEKYENEKNEKVDLILCCGDMQTIRDENDLQDMAVKSHRSKKGDFWEYYEGLKKAPKLTIFIGGNHETPNVLIPLYYGGWVAPNIFYLGSSGVIRVGDVRVAGISGIYKNYDHFRGYYESKPFTEESKRSWYHIRWLEIQKLLLIENIKSNFLGSTESRKVDVMISHDWPNGIERFGNLNYLIRRKPYLKEDIELGRLGIPGCIELIEHLRPTFWFSGHHHCFFDASIEFENQLYSSEFRAIDKFKNSNSPVRYFDINSNKNDVRIYLDFEWLTILRSVKANIPKGNFTIDKNSIPKLSGPTKSDIDAIYKNLKEVIGDFDENHYEWPLWGQANGNFKNLQDQYNFINRIIEEG”, “not soluble”.
“SLVKGESGHQAVSGIAIQRDLAIIEVDKEHLSSATKQCQMLGIDIWNVIEETERTGIMIKQEACAKFDLVFSDKIRNSEAVSLLTAVGLEANGMVEHACGLLAQQDIAINFCATNALTMMLVLPPESVDTAANILHDAYITSSEALNIQQKHAFLG”: the “soluble on expression in E. coli” value was “not soluble”.
Under “SLVPRVMSTQHPDNARIPFFAASEVLNGEDEVREAYYVFSHFKCDEQMWDFEGKEADAHIVRKLLSSYYDFFSSRPLGKDFRLTMRVPNPEIEKGEAKLLAETLEMIPRSYDYVRSLGIEHPPIFEVILPMTRSAEEVMKVHAFYRDFVAGKGRFELLGEKVSDWLGDFLPEEIKVIPLFEDRDSLMRAAEISERYAEWAELDELRVFLARSDPAMNYGFVAATIYVKKALYDLSQLGISTYPILGVGSCPFRGGFSPKNLSVLDEFPSVYTFTVQSAFKYDYEFGDVRRAIKRAKEAARRKSDYVDEEHLQVAEKLKDGYRRRIAKIAEIVNRISSRIPRRRMRKLHVGLFGYSRGEEIKLPRAITFCASLYSIGLPSEIIGIAEMSDKDYEAVCEVFKNFDGMMESAMSLFNPESLKIVDLSMDFERAKELFGYEPDERHLEKTNEIIKQIDGDIKNLVVEAGILRGFLG” stands “soluble”.
As for “SLWQPQTGDIIFQISRSSQSKAIQLATHSDYSHTGMLVMRNKKPYVFEAVGPVKYTPLKQWIAHGEKGKYVVRRVEGGLSVEQQQKLAQTAKRYLGKPYDFSFSWSDDRQYCSEVVWKVYQNALGMRVGEQQKLKEFDLSNPLVQAKLKERYGKNIPLEETVVSPQAVFDAPQLTTVAKEWPLFSW”, the entry is “soluble”; as for “SLYMDTAVSPFYFVSNAPRELLDGVSQTLASRDQLELENRALRQELLLKNSELLMLGQYKQENARLRELLGSPLRQDEQKMVTQVISTVNDPYSDQVVIDKGSVNGVYEGQPVISDKGVVGQVVAVAKLTSRVLLICDATHALPIQVLRNDIRVIAAGNGCTDDLQLEHLPANTDIRVGDVLVTSGLGGRFPEGYPVAVVSSVKLDTQRAYTVIQARPTAGLQRLRYLLLLWGADRNGANPMTPEEVHRVANERLMQMMPQVLPSPDAMGPKLPEPATGIAQPTPQQPATGNAATAPAAPTQPAANRSPQRATPPQSGAQPPARAPGGQ”, “soluble”; as for “SMGDREQLLQRARLAEQAERYDDMASAMKAVTELNEPLSNEDRNLLSVAYKNVVGARRSSWRVISSIEQKTMADGNEKKLEKVKAYREKIEKELETVCNDVLSLLDKFLIKNCNDFQYESKVFYLKMKGDYYRYLAEVASGEKKNSVVEASEAAYKEAFEISKEQMQPTHPIRLGLALNFSVFYYEIQNAPEQACLLAKQAFDDAIAELDTLNEDSYKDSTLIMQLLRDNLTLWTSDQQDEEAGEGN”, “soluble”.
As for “SMGTRPRRKKHDYRIALFGGSQPQSCRYFNPKDYSWTDIRCPFEKRRDAACVFWDNVVYILGGSQLFPIKRMDCYNVVKDSWYSKLGPPTPRDSLAACAAEGKIYTSGGSEVGNSALYLFECYDTRTESWHTKPSMLTQRCSHGMVEANGLIYVCGGSLGNNVSGRVLNSCEVYDPATETWTELCPMIEARKNHGLVFVKDKIFAVGGQNGLGGLDNVEYYDIKLNEWKMVSPMPWKGVTVKCAAVGSIVYVLAGFQGVGRLGHILEYNTETDKWVANSKVRAFPVTSCLICVVDTCGANEETLET”, the entry is “soluble”; as for “SMMDLFETGSYFFYLDGENVTLQPLEVAEGSPLYPGSDGTLSPCQDQMPPEAGSDSSGEEHVLAPPGLQPPHCPGQCLIWACKTCKRKSAPTDRRKAATLRERRRLKKINEAFEALKRRTVANPNQRLPKVEILRSAISYIERLQDLLHRLDQQEKMQELGVDPFSYRPKQENLEGADFLRTCSSQWPSVSDHSRGLVITAKEGGASIDSSASSSLRCLSSIVDSISSEERKLPCVEEVVEK”, “soluble”.
Consider “SMQICDTYNQKHSLFNAMNRFIGAVNNMDQTVMVPSLLRDVPLSEPEIDEVSVEVGGSGGCLEERTTPAPSPGSANESFFAPSRDMYSHYVLLKSIRNDIEWGVLHQPSSPPAGSEESTWKPKDILVGLSHLESADAGEEDLEQQFHYHLRGLHTVLSKLTRKANILTNRYKQEIGFSNWGH”, for which the “soluble on expression in E. coli” value is reported as “soluble”.
Under “SMRPPIVIHSSGKKYGFSLRAIRVYMGDSDVYTVHHVVWSVEDGSPAQEAGLRAGDLITHINGESVLGLVHMDVVELLLKSGNKISLRTTALENTETSV” stands “soluble”.
As for “SMSEHSAIVTWKRKDSEAFTDNQYSRAHTWEFDGGSKILASASPHVVPVPLSVEANVDPEEAFVAALSSCHMLVFLSIAAKQRYLVESYTDNAVGILGKNSKGKTSVTKVVLRPQVVFSGTSKPTLQQLEKMHHLAHENCFIANSVETEVVTEII”, the entry is “soluble”; as for “SMVFDSESNLDRFLRCTTPIVPAYSLPKTQIKNLNPLWYPLESQSVEYFRLGDFWDCFDEWSAYGAGVPIVSETGETLVQYYVPYLSAIQIFTSHSVINTLREETESGDSGSESCSEEWRWEGCSSSEEGFDHQEPLDRLGYSYLQYFERCTPYSRVPLMDKIKELGERYVGLRSLRSVDLSPASWMAVAWYPIYHIPMNRSIKDLSTCFLTYHTLSSSFQDVKREEEKERISVSAFGMATYKMQGRLWDNDRLLCFLSVADSWLKQLRVHHHDFTYFTTTTHYL”, “soluble”.
